B1: DPE1 promoter EE oligo (dsDNA)
DNA 1: AGAGCAACAAAATATCTCGACTGTT
DNA 2: AACAGTCGAGATATTTTGTTGCTCT
B2: PORB promoter EE oligo (dsDNA)
DNA 1: ATTAAAATAAAATATCTAAGGAGAA
DNA 2: TTCTCCTTAGATATTTTATTTTAAT
B3: PORA promoter EE oligo (dsDNA)
DNA 1: TATACATTAAAATATCTACTGACAG
DNA 2: CTGTCAGTAGATATTTTAATGTATA
B4: GWD3 promoter EE oligo (dsDNA)
DNA 1: CACAAACAAAAAAATCTCTTATCAC
DNA 2: GTGATAAGAGATTTTTTTGTTTGTG
B5: TOC1 promoter EE oligo (dsDNA)
DNA 1: ACACAAAAAAAATATCTAATCACAG
DNA 2: CTGTGATTAGATATTTTTTTTGTGT

Tests used:
CCA1 [1] = target: T1, CCA1 (Arabidopsis thaliana, UniProt P92973 P92973:1-608); assay: EMSA; 10 fmol rCCA1 and 10 fmol probe; cold competitor 5-50x; settings: tags: full-length cDNA in pET300/NT-DEST, E. coli Rosetta-gami B; label: 32P
T1 sequence (P92973 whole entry, one chain of several): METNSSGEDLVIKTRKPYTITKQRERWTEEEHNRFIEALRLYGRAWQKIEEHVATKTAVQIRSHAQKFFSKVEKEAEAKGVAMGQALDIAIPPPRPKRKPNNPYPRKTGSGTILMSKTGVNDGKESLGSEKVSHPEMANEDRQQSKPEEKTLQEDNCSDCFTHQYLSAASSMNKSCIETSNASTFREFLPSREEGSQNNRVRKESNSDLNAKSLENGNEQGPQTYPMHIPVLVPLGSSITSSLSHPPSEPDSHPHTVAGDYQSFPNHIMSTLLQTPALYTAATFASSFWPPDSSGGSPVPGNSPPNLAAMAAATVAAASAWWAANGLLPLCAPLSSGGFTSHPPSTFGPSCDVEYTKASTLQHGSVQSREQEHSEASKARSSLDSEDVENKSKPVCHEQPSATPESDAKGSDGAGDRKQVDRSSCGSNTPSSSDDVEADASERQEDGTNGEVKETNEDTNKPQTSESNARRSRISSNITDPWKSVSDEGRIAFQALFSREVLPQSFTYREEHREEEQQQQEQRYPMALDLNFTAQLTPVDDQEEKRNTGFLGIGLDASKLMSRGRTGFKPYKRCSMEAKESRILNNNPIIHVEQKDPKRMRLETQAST
Source text: (§1) The cDNA was cloned into pDONR221 and validated by sequencing. The resulting insert was transferred by recombination into pET300/NT-DEST expression vector (Invitrogen Corp., Carlsbad, Calif.) and expressed in Escherichia coli Rosetta-gami B competent cells (Novagen, Madison, Wis.). Recombinant CCA1 protein was purified and subjected to EMSA in 6% native polyacrylamide gels using rCCA1 (10 fmoles) and ³²P-labeled double-stranded oligonucleotides (10 fmoles, Table 5). The cold probe (Cp) concentrations were 0 (-), 50 (5×), 100 (10×), 200 (20×), and 500 (50×) fmoles, respectively, according to a published protocol available at http://www.natureprotocols.com/2009/01/08/the_electrophoretic_mobility_s_{—}1.php.

CCA1 [2] = target: T1, CCA1; assay: EMSA; 10 fmol rCCA1 and 10 fmol probe; cold competitor 5-50x; text prints PORE for PORB; settings: tags: full-length cDNA in pET300/NT-DEST, E. coli Rosetta-gami B; label: 32P
Source text: as §1

Binder	binding result (CCA1 [1])	binding result (CCA1 [2])
B1	binds	–
B2	–	binds
B3	binds	–
B4	binds	–
B5	binds	–

Reference: US20110271397, “MOLECULAR CLOCK MECHANISM OF HYBRID VIGOR” (published 2011)
